Series [1] deals with T1, FUN DNA-binding domain (bZIP) (Lotus japonicus).
T1 chain: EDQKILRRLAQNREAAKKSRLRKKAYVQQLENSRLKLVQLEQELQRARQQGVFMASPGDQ
Put plainly: EMSA; same buffer, 37 C. As to conditions: chain copies: 2; label: 5' 6-FAM. Here is the method:
(§1) The purified FUN DNA binding domain (residues 178-237) was incubated with the probes at 37° C. for 60 min in EMSA buffer (25 mM Tris-HCl pH8.0, 80 mM NaCl, 35 mM KCl, 5 mM MgCl₂). After incubation, the reaction mixture was electrophoresed in 6% native polyacrylamide gel and then labelled DNA was detected with the Typhoon scanner (Fujifilm). Probes without 6-FAM-label served as competitors, while probes with mutation in the core binding sites (TGACG) served as mutants.
(§2) The promoter region of Nrt2.1 had four putative FBSs (P1-P4), the promoter region of Ho1 had two FBSs (P1 and P2), the promoter region of NAC094 had one FBS (P1), the promoter region of Nrt3.1 had three FBSs (P1, P2, and P3), and the promoter region of AS1 had one FBS (P1), all of which are illustrated in FIG. 2C. EMSA was conducted to test whether the FUN DNA-binding domain bound probes representing the FBSs.

Series [2] has as its target T1, FUN DNA-binding domain (bZIP). Put plainly: EMSA; same buffer, 37 C; printed reverse strand identical to forward. As to conditions: chain copies: 2; label: 5' 6-FAM. On the procedure:
as §1, §2
In general terms: A gel shift assay detects complexes by their altered migration in electrophoresis.

The target is the same in series [3]. Put plainly: EMSA; 25 mM Tris pH 8.0, 80 mM NaCl, 35 mM KCl, 5 mM MgCl2, 37 C. The following applies: chain copies: 2; label: 5' 6-FAM. Here is the method:
as §1, §2

Series [4] deals with the molecule itself. The series is described as follows: confocal imaging of FUN-GFP in N. benthamiana leaves infiltrated with 500 µM ZnCl2.

B1: NRT3.1 P2 (dsDNA)
DNA 1: GGTTTTTATTTTTGACCTCAGAGGGGATCG
DNA 2: CGATCCCCTCTGAGGTCAAAAATAAAAACC
Consider B1, for which the binding result in series [1] was “binds”.

B2: NRT2.1 P4 (dsDNA)
DNA 1: AGATTTAAGTTGACGTATTAATGACAATGA
DNA 2: TCATTGTCATTAATACGTCAACTTAAATCT
Turning to B2, in series [1], the binding result is “binds”.

B3: NAC094 P1 (dsDNA)
DNA 1: AGGAGAGGTTTGTGAGCATCAGCAAAGTGT
DNA 2: ACACTTTGCTGATGCTCACAAACCTCTCCT
Turning to B3, in series [1], the binding result is listed as “binds”.

B4: AS1 P1 (dsDNA)
DNA 1: CATGTGGGCTTTTGACGAAGGTTCAAGTAG
DNA 2: CTACTTGAACCTTCGTCAAAAGCCCACATG
Consider B4, for which the binding result in series [2] was “binds”.

B5: HO1 P2 (dsDNA)
DNA 1: TCGAGCCTGCCTTGAGCTTGTCTTCTCCAT
DNA 2: ATGGAGAAGACAAGCTCAAGGCAGGCTCGA
For B5, the binding result in series [1] is “binds”.

B6: HO1 P1 (dsDNA)
DNA 1: TGTAATAACTTGTGAGCGAAGCAGGGATCC
DNA 2: GGATCCCTGCTTCGCTCACAAGTTATTACA
As for B6, the binding result in series [1] is “binds”.

B7: NRT2.1 P1 (dsDNA)
DNA 1: ACAAGTAGCTTATGACGTACGACATATAGT
DNA 2: ACTATATGTCGTACGTCATAAGCTACTTGT
For the molecule B7, the binding result in series [3] was “binds”.

B8: FUN-GFP (FUN fused to green fluorescent protein) (other)
chain: MQGFKTAQGNSHLYCHPSSFLLRGDDTSRNHTRFSDLGELQHSSNIFQQDDAVDLSSSNLPCSMYSVKSCNVVGGGSNMQYGTLNTNLGSAEIVSTGAGCLETGQQLMYHKEISMATMPMGNGHVENWADSSGMADNSQQTDDTSTDVDTDDKIQSNRDKRGTHMVVHSRDQTKSKPEDQKILRRLAQNREAAKKSRLRKKAYVQQLENSRLKLVQLEQELQRARQQGVFMASPGDQSHLAVGGANGASAFDMEYAHWVDEHQRLLTDLRSALNSQMGDNELHLLVDGVMAHYDELFRLKSLGAKADVFHMHSGLWKTPAERCFMWLGGFRSTELLKIVKNHLEPLTEPQLMGIDNLLRCAQQGEDALTQGMEALQQALVDTLSSTSLGPAGAGNVADYMGQMAIAMGKLATLESFLHSADLVKQQTLQQLQRILTTRQMARALLVRNDYISRLRALSSLWLARPRESSVMSSLPPSNIE
notes: Expressed inside plant cells, where it is nuclear (N. benthamiana leaves, Lotus hairy roots), not on the cell surface; also called pro35S:FUN-GFP; proUbi:FUN-GFP; not shown: eGFP fused to the FUN CDS
With B8, the binding result in series [4] is reported as “binds”.

B9: NRT3.1 P1 (dsDNA)
DNA 1: CGTTCATTAATATGACATCAGAATTTCTCT
DNA 2: AGAGAAATTCTGATGTCATATTAATGAACG
For the molecule B9, in series [1], the binding result is listed as “binds”.

B10: NRT3.1 P3 (dsDNA)
DNA 1: AGACCTATTTTCTGACTCAATGTAGAGGGT
DNA 2: ACCCTCTACATTGAGTCAGAAAATAGGTCT
As to B10, the binding result in series [1] is on record as “binds”.

Source of the values: US20240271152A1, “ENHANCING NITROGEN FIXATION WITH FUN” (Aarhus Universitet, published 2024).
